Measurements taken from paper PMC3326535.

Key:
[1] = target: Human quinolinate phosphoribosyltransferase (hQPRTase) (human) (UniProt Q15274); assay: SEC
[2] = target: Human quinolinate phosphoribosyltransferase (hQPRTase) (human) (UniProt Q15274); assay: crystal structure

Substance: Human quinolinate phosphoribosyltransferase (hQPRTase) (from UniProt Q15274 1-297) (enzyme)
- stoichiometry N [1]: 6
- stoichiometry N [2]: 6
